Key:
[1] = system: plasma mSRC; experiment: Plasma SRC concentration in mice by ELISA; type: in vivo, mouse; conditions: FXII−/− mice, CCl4 0.5 g/kg or hPEPD 4 mg/kg i.p., 24 h
Method: Animal studies. All animal studies were performed in accordance with protocols approved by the Institutional Animal Care and Use Committee at Roswell Park Cancer Institute. Male mice at 7-8 weeks of age were used, including wild type (WT) mice (C57BL/6), and mice deficient in FXII (C57BL/6-FXII^−/−) or FVII (C57BL/6-FVII^tTA/tTA). WT C57BL/6 mice were purchased from Taconic. C57BL/6-FXII^−/− mice and C57BL/6-FVII^tTA/tTA mice were bred in our own facility and genotyped. The breeders were kindly provided by Dr. Francis J. Castellino at University of Notre Dame. […] CCl4 was dissolved in corn oil, whereas all other substances were dissolved in PBS. The vehicle or the test substance was given to mice in 0.1 ml volume per 20 g body weight. Blood was collected from the mice at specific times by cardiac puncture at the time of sacrifice by carbon dioxide, and heart, liver and kidney were also collected from some of the mice. […]
Measurement of plasma levels of PEPD, SRC, Aβ1-42 and FI. […] Upon adequate color development, 100 μl of stop solution (Cell Signaling, 7002) was added to each well, and absorbance at 450 nm was promptly recorded by a microtiter plate reader. Plasma FI concentration was determined using an assay kit (400-374-130050) from GenWay Biotech, following the manufacturer's instruction.

[2] = system: FX, FII or FVII; experiment: Potential activation of FX, FII or FVII by hPEPD (IB); type: biochemical, human; conditions: hPEPD 40 nM, 5 mM CaCl2, RT, 24 h
Method: Measurement of Potential Activation of FX, FII or FVII by hPEPD. hPEPD (40 nM) was incubated with FX, FIT or FVII […] in PBS at RT in the presence of 5 mM CaCl2 for 24 h, followed by IB analysis for potential activation/cleavage of each coagulation factor. FXa, FIIa and FVIIa were used as positive controls in the experiments.

[3] = system: ERBB1 and ERBB2; experiment: Tissue levels and phosphorylation of ERBB1 and ERBB2 by IB; type: in vivo, mouse; conditions: CCl4 0.5 g/kg or hPEPD 4 mg/kg i.p., 24 h
Method: Animal studies. All animal studies were performed in accordance with protocols approved by the Institutional Animal Care and Use Committee at Roswell Park Cancer Institute. Male mice at 7-8 weeks of age were used, including wild type (WT) mice (C57BL/6), and mice deficient in FXII (C57BL/6-FXII^−/−) or FVII (C57BL/6-FVII^tTA/tTA). WT C57BL/6 mice were purchased from Taconic. C57BL/6-FXII^−/− mice and C57BL/6-FVII^tTA/tTA mice were bred in our own facility and genotyped. The breeders were kindly provided by Dr. Francis J. Castellino at University of Notre Dame. […] CCl4 was dissolved in corn oil, whereas all other substances were dissolved in PBS. The vehicle or the test substance was given to mice in 0.1 ml volume per 20 g body weight. Blood was collected from the mice at specific times by cardiac puncture at the time of sacrifice by carbon dioxide, and heart, liver and kidney were also collected from some of the mice. Blood was collected into K3 EDTA-containing tubes (Multivette 600 from Sarstedt), unless specified otherwise. All blood samples were promptly centrifuged to obtain plasma samples.
IB. […] Protein concentrations in all samples were measured by the BCA assay kit. […] The proteins were transferred to polyvinylidene fluoride membrane, probed with specific antibodies and detected using the ECL Plus Kit (Amersham) or the SuperSignal West Pico Kit (Thermo Scientific).

[4] = hPEPD-degrading activity of mouse plasma samples; type: in vitro ADME
Method: Measurement of in vitro degradation of hPEPD, mSRC and hAβ1-42. To determine whether a blood coagulation factor degrades hPEPD, hPEPD at 90 nM or lower concentrations (10 or 40 nM) was incubated with solvent, 100 nM FIIa, 100 nM FXa, 10 nM FVIIa with or without 10 nM TF, or 10 nM FVII with or without 10 nM TF and/or 100 nM FIIa in PBS in a total volume of 100 μl containing 5 mM CaCl2 for desired times at RT. […] To compare the hPEPD-degrading activities of different plasma samples, 9.2 pmol of hPEPD was incubated with 100 μl of plasma from WT mice or FVII^tTA/tTA mice at RT, with or without FIIa or FXa (10 pmol), and to maximize detection of any activity, all incubations lasted for 24 h. […] Although some clotting activity may take place before and during centrifugation of the blood sample, our experiments indicate that activation of coagulation factors, e.g., FVII, is very limited (see FIG. 5A). To measure remaining hPEPD, the incubated samples were cleared of potential fibrin clots by centrifugation and then analyzed by SDS-PAGE and silver staining (using the LC 6070 kit from Invitrogen), IB or measurement of hPEPD enzymatic activity. hPEPD enzymatic activity was measured using glycyl-proline as a substrate (as described in Zbucka et al., Folia Histochem Cytobiol 2007; 45 Suppl 1: S181-185). The precipitates from each incubated sample were washed with PBS twice and then resuspended in 2.5% SDS (20 μper sample); each solution was mixed with 10 μl loading dye and analyzed for hPEPD by IB, using pure hPEPD as a standard and factor FXIIIa as a binding control, respectively.
To measure degradation of hPEPD in plasma samples with or without removal of FVII and FVIIa, plasma samples from WT mice as described above were either used directly or immunodepleted of FVII and FVIIa before use. To remove FVII and FVIIa from plasma, 500 μl plasma was incubated with an antibody specific for FVII/FVIIa (GTX79785; 10 μg) and protein A sepharose beads for 1 h at RT. Following centrifugation at 13,000×g for 1 min at 4° C., the supernatant fraction was collected and analyzed by IB to confirm depletion of FVII and FVIIa. Next, 9.2 pmol of hPEPD was incubated with 100 μl of regular plasma or the plasma depleted of FVII/FVIIa, with or without FIIa (10 pmol) for 24 h at RT. Potential fibrin clots formed during the incubation was removed by centrifugation at the end of the incubation, and remaining hPEPD was measured by hPEPD enzymatic activity analysis.

B1: hPEPD: recombinant human prolidase (PEPD), 6xHis tagged to the carboxy terminus (protein, UniProt P12955 2-493, looked up)
Xaa-Pro dipeptidase: AAATGPSFWLGNETLKVPLALFALNRQRLCERLRKNPAVQAGSIVVLQGGEETQRYCTDTGVLFRQESFFHWAFGVTEPGCYGVIDVDTGKSTLFVPRLPASHATWMGKIHSKEHFKEKYAVDDVQYVDEIASVLTSQKPSVLLTLRGVNTDSGSVCREASFDGISKFEVNNTILHPEIVECRVFKTDMELEVLRYTNKISSEAHREVMKAVKVGMKEYELESLFEHYCYSRGGMRHSSYTCICGSGENSAVLHYGHAGAPNDRTIQNGDMCLFDMGGEYYCFASDITCSFPANGKFTADQKAVYEAVLRSSRAVMGAMKPGVWWPDMHRLADRIHLEELAHMGILSGSVDAMVQAHLGAVFMPHGLGHFLGIDVHDVGGYPEGVERIDEPGLRSLRTARHLQPGMVLTVEPGIYFIDHLLDEALADPARASFLNREVLQRFRGFGGVRIEEDVVVTDSGIELLTCVPRTVEEIEACMAGCDKAFTPFSGPK
modifications: C-terminal 6xHis tag
notes: recombinant human prolidase (PEPD), 6xHis tagged to the carboxy terminus
[1]
  average plasma level of mSRC, increase: remained unchanged
[2]
  direct activation of FX, FII or FVII: does not directly activate any of these factors
[3]
  changes in ERBB1/ERBB2 tyrosine phosphorylation and receptor depletion in heart, kidney and liver, WT mice compared to FXII−/− mice: reduced changes in receptor tyrosine phosphorylation
[4]; FVII tTA/tTA plasma
  hPEPD degradation in plasma after adding human FIIa or FXa: neither factor was effective
[4]; FVII tTA/tTA plasma, 24 h, RT
  hPEPD degradation after incubation with plasma: no degradation of hPEPD could be detected
[4]; WT plasma
  hPEPD degradation in plasma after adding human FIIa or FXa: markedly enhanced hPEPD degradation
[4]; WT plasma, 24 h, RT
  hPEPD remained after incubation with plasma: 88.8%
[4]; WT plasma, with or without FIIa
  hPEPD degradation in plasma after removal of FVII/FVIIa by immunodepletion: abolished the residual hPEPD degradation or FIIa-enabled hPEPD degradation

Source: patent US20180188270A1, “DIAGNOSTIC TEST FOR ALZHEIMER'S DISEASE BASED ON IDENTIFICATION OF A PROTEOLYTIC PATHWAY” (Health Research, Inc., priority 2015, published 2018)
